± gives the standard deviation of the averaged measurements.
Tests used:
[1] = tested on: VchCAST RNA-guided transposition machinery (E. coli BL21(DE3) host, lacZ target); experiment: relative integration efficiency (T-RL orientation) vs wild-type transposon end (log2 (normalized fold change)); transposon end mutated: left end; higher = more efficient transposition
How it was run: (§1)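 In E. coli BL21(DE3), a T7-driven effector plasmid was paired with a pUC57 mini-transposon donor containing 1549 left-end or 1849 right-end barcoded transposon variants. Cells grew on plates with 0.1 mM IPTG at 37°C for 18 h. Relative integration efficiency was derived from Illumina reads of genomic integration junctions against input plasmids, as a log-transformed output/input barcode fold change normalised to reference barcodes.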

[2] = tested on: VchCAST RNA-guided transposition machinery (E. coli BL21(DE3) host, lacZ target); experiment: relative integration efficiency (T-LR orientation) vs wild-type transposon end (log2 (normalized fold change)); transposon end mutated: left end; higher = more efficient transposition
How it was run: as §1

With “AATGTTGTTGATGCAACCATAAAGTGATATTTAATACAACCATATATTGATATCTCATTATTTATAATCAGCAACTTAACCACAAAAACAAAACAACCATAAGTTGATATTTTTGTGAATCGAGTATTTCAGCAAAACTACTGCAGTAAGAA” the “relative integration efficiency (log2)” value [1] was -4.61 ± 1.8 and the “relative integration efficiency (log2)” value [2] was -3.41 ± 3.5.

“AATGTTGTTGATGCAACCATAAAGTGATATTTAATACGGCGGGCGCCGACTACCAGGCCAACACCCCACCAACGCGCGGTCGCGAGACACCCCACCAACGCCTGGTCGCGGGGGTGTCCGATCTGATTTCAGCAAAACTACTGCAGTAAGAA” was tested, and the “relative integration efficiency (log2)” value [1] was -6.9 ± 1.3 and the “relative integration efficiency (log2)” value [2] was -4.75 ± 2.

With “AATGTTGTTGATGCAACCATAAAGTGATATTTAATAGTACTGCGCGACTGAAATCATCATTAAAACGCAACCATATATTGATATCTCACAAAACAACCATAAGTTGATATTTTTGTGAATCGAGTATTTCAGCAAAACTACTGCAGTAAGAA” the “relative integration efficiency (log2)” value [1] was -4.94 ± 0.88 and the “relative integration efficiency (log2)” value [2] was -3.4 ± 1.6.

“AATGTTGTTGATGCAACCATAAAGTGATATTTAATCAACCATAAAGTGATATTTAACTTAACCACAACAACCATATATTGATATCTCACAAAACAACCATAAGTTGATATTTTTGTGAATCGAGTATTTCAGCAAAACTACTGCAGTAAGAA” was tested, and the “relative integration efficiency (log2)” value [1] was -4.54 ± 1.2 and the “relative integration efficiency (log2)” value [2] was -0.257 ± 1.2.

In the case of “AATGTTGTTGATGCAACCATAAAGTGATATTTAATCAACCATATATTGATATCTCAATTATTTATAATCAGCAACTTAACCACAAAAACAAAACAACCATAAGTTGATATTTTTGTGAATCGAGTATTTCAGCAAAACTACTGCAGTAAGAA”, the “relative integration efficiency (log2)” value [1] is reported as -2.99 ± 0.87 and the “relative integration efficiency (log2)” value [2] is reported as -0.334 ± 1.6.

“AATGTTGTTGATGCAACCATAAAGTGATATTTAATCAACCATATATTGATATCTCACAAAACAACCATAAGTTGATATTTTTGTGAATCGAGTATTTCAGCAAAACTACTGCAGTAAGAAAGTTACTTCGTGGTATGGGAGGATCAAGGAGC” was tested, and the “relative integration efficiency (log2)” value [1] was -3.38 ± 1.4 and the “relative integration efficiency (log2)” value [2] was -0.405 ± 1.

“AATGTTGTTGATGCAACCATAAAGTGATATTTAATCCGGCGGGCGCCGACTACCAGGCCAACACCCCACCAACGCGCGGTCGCGAGACACCCCACCAACGCCTGGTCGCGGGGGTGTCCGATCTGATTTCAGCAAAACTACTGCAGTAAGAA” was tested, and the “relative integration efficiency (log2)” value [1] was -6.75 ± 1.3 and the “relative integration efficiency (log2)” value [2] was -4.25 ± 1.

With “AATGTTGTTGATGCAACCATAAAGTGATATTTACAACCATAAAGTGATATTTAACTTAACCACAAAACAACCATATATTGATATCTCACAAAACAACCATAAGTTGATATTTTTGTGAATCGAGTATTTCAGCAAAACTACTGCAGTAAGAA” the “relative integration efficiency (log2)” value [1] was -3.13 ± 0.76 and the “relative integration efficiency (log2)” value [2] was 1.11 ± 0.91.

With “AATGTTGTTGATGCAACCATAAAGTGATATTTACAACCATATATTGATATCTCACAAAACAACCATAAGTTGATATTTTATAATTATTTATAATCAGCAACTTAACCACAAAATGTGAATCGAGTATTTCAGCAAAACTACTGCAGTAAGAA” the “relative integration efficiency (log2)” value [1] was -1.4 ± 0.65 and the “relative integration efficiency (log2)” value [2] was 0.848 ± 1.

For “AATGTTGTTGATGCAACCATAAAGTGATATTTACAACCATATATTGATATCTCACAAAACAACCATAAGTTGATATTTTTGTGAATCGAGTATTTCAGCAAAACTACTGCAGTAAGAAAGTTACTTCGTGGTATGGGAGGATCAAGGAGCCA”, the “relative integration efficiency (log2)” value [1] was -2.61 ± 1.1 and the “relative integration efficiency (log2)” value [2] was 0.662 ± 0.89.

With “AATGTTGTTGATGCAACCATAAAGTGATATTTACAACCATATATTGATATCTCACAAACAACCATAAGTTGATATTTTTGTGAATCGAGTATTTCAGCAAAACTACTGCAGTAAGAAAGTTACTTCGTGGTATGGGAGGATCAAGGAGCCAA” the “relative integration efficiency (log2)” value [1] was -2 ± 0.74 and the “relative integration efficiency (log2)” value [2] was 2.04 ± 0.88.

In the case of “AATGTTGTTGATGCAACCATAAAGTGATATTTACAACCATATATTGATATCTCACAACAACCATAAGTTGATATTTTTGTGAATCGAGTATTTCAGCAAAACTACTGCAGTAAGAAAGTTACTTCGTGGTATGGGAGGATCAAGGAGCCAAT”, the “relative integration efficiency (log2)” value [1] is reported as -2.68 ± 0.7 and the “relative integration efficiency (log2)” value [2] is reported as 2.75 ± 0.92.

In the case of “AATGTTGTTGATGCAACCATAAAGTGATATTTACAACCATATATTGATATCTCACACAACCATAAGTTGATATTTTTGTGAATCGAGTATTTCAGCAAAACTACTGCAGTAAGAAAGTTACTTCGTGGTATGGGAGGATCAAGGAGCCAATA”, the “relative integration efficiency (log2)” value [1] is reported as -2.53 ± 0.78 and the “relative integration efficiency (log2)” value [2] is reported as 3.33 ± 0.87.

In the case of “AATGTTGTTGATGCAACCATAAAGTGATATTTACAACCATATATTGATATCTCATAATTATTTATAATCAGCAACTTAACCACAAAAACAAAACAACCATAAGTTGATATTTTTGTGAATCGAGTATTTCAGCAAAACTACTGCAGTAAGAA”, the “relative integration efficiency (log2)” value [1] is reported as -1.85 ± 0.76 and the “relative integration efficiency (log2)” value [2] is reported as -0.75 ± 1.4.

“AATGTTGTTGATGCAACCATAAAGTGATATTTACAACCATATATTGATATCTCTCACAACCATAAGTTGATATTTCTCTGATCATAGTCAGACCAACATTGCTACGACCCGTATTCGCACCGACACTGTGAATCGAGTATTTCAGCAAAACT” was tested, and the “relative integration efficiency (log2)” value [1] was -2.28 ± 0.64 and the “relative integration efficiency (log2)” value [2] was 2.61 ± 1.1.

With “AATGTTGTTGATGCAACCATAAAGTGATATTTACAACCATATATTGATATCTCTCACAACCATAAGTTGATATTTTTGTGAATCGAGTATTTCAGCAAAACTACTGCAGTAAGAAAGTTACTTCGTGGTATGGGAGGATCAAGGAGCCAATA” the “relative integration efficiency (log2)” value [1] was -2.79 ± 0.97 and the “relative integration efficiency (log2)” value [2] was 3.04 ± 0.96.

“AATGTTGTTGATGCAACCATAAAGTGATATTTACACGAAGTGGCAACTGCCGTGCTGGCGTGCGATGCAACCATATATTGATATCTCACAAAACAACCATAAGTTGATATTTTTGTGAATCGAGTATTTCAGCAAAACTACTGCAGTAAGAA” was tested, and the “relative integration efficiency (log2)” value [1] was -2.73 ± 0.84 and the “relative integration efficiency (log2)” value [2] was 0.496 ± 0.1.

“AATGTTGTTGATGCAACCATAAAGTGATATTTACCGACTGCCTGCCATCCGCCGCCGCACCGCAGCCCAACCATATATTGATATCTCACAAAACAACCATAAGTTGATATTTTTGTGAATCGAGTATTTCAGCAAAACTACTGCAGTAAGAA” was tested, and the “relative integration efficiency (log2)” value [1] was -2.99 ± 0.89 and the “relative integration efficiency (log2)” value [2] was -3.03 ± 1.2.

“AATGTTGTTGATGCAACCATAAAGTGATATTTACCGACTGTCTGCCATCAGCCGCTTAACCGCAGCCCAACCATATATTGATATCTCACAAAACAACCATAAGTTGATATTTTTGTGAATCGAGTATTTCAGCAAAACTACTGCAGTAAGAA” was tested, and the “relative integration efficiency (log2)” value [1] was -3.07 ± 0.93 and the “relative integration efficiency (log2)” value [2] was -3.56 ± 0.14.

With “AATGTTGTTGATGCAACCATAAAGTGATATTTACCGACTGTCTGCCATCCGCCGCTGAACCGCAGCCCAACCATATATTGATATCTCACAAAACAACCATAAGTTGATATTTTTGTGAATCGAGTATTTCAGCAAAACTACTGCAGTAAGAA” the “relative integration efficiency (log2)” value [1] was -2.98 ± 0.99 and the “relative integration efficiency (log2)” value [2] was -3.04 ± 1.6.

For “AATGTTGTTGATGCAACCATAAAGTGATATTTACCGACTGTCTGCCATCCGCCGCTGCACCGCAGCCCAACCATATATTGATATCTCACAAAACAACCATAAGTTGATATTTTTGTGAATCGAGTATTTCAGCAAAACTACTGCAGTAAGAA”, the “relative integration efficiency (log2)” value [1] was -3.24 ± 1 and the “relative integration efficiency (log2)” value [2] was -2.44 ± 0.78.

For “AATGTTGTTGATGCAACCATAAAGTGATATTTACGAATCAATTAAAATCATAGGCTTAATCGAAAAACAACCATATATTGATATCTCATAAAACAACCATAAGTTGATATTTTGGTGAAAAGGATATTCCAACCTTCATAGTTTAGTAAGAA”, the “relative integration efficiency (log2)” value [1] was 0.639 ± 0.032 and the “relative integration efficiency (log2)” value [2] was 0.612 ± 0.84.

In the case of “AATGTTGTTGATGCAACCATAAAGTGATATTTACGAGCCGAGCTCGTGCCCGGTGCCGCGGCAGACGCAACCATATATTGATATCTCACAAAACAACCATAAGTTGATATTTTTGTGAATCGAGTATTTCAGCAAAACTACTGCAGTAAGAA”, the “relative integration efficiency (log2)” value [1] is reported as -2.33 ± 0.72 and the “relative integration efficiency (log2)” value [2] is reported as -2.47 ± 1.1.

For “AATGTTGTTGATGCAACCATAAAGTGATATTTACGCACTCCGTAGCCATCTGGGGCACCGGACGCTCCAACCATATATTGATATCTCACAAAACAACCATAAGTTGATATTTTTGTGAATCGAGTATTTCAGCAAAACTACTGCAGTAAGAA”, the “relative integration efficiency (log2)” value [1] was -2.64 ± 0.79 and the “relative integration efficiency (log2)” value [2] was -3.42 ± 0.88.

For “AATGTTGTTGATGCAACCATAAAGTGATATTTACGCCGGCGGGCGCCGACTACCAGGCCAACACCCCACCAACGCGCGGTCGCGAGACACCCCACCAACGCCTGGTCGCGGGGGTGTCCGATCTGATTTCAGCAAAACTACTGCAGTAAGAA”, the “relative integration efficiency (log2)” value [1] was -6.9 ± 0.36 and the “relative integration efficiency (log2)” value [2] was -6.15 ± 3.6.

With “AATGTTGTTGATGCAACCATAAAGTGATATTTACGCCGGCGGGCGCCGACTACCAGGCCAACACCCCCAACCATATATTGATATCTCACAAAACAACCATAAGTTGATATTTTTGTGAATCGAGTATTTCAGCAAAACTACTGCAGTAAGAA” the “relative integration efficiency (log2)” value [1] was -3.42 ± 1.2 and the “relative integration efficiency (log2)” value [2] was -2.85 ± 1.2.

With “AATGTTGTTGATGCAACCATAAAGTGATATTTACGTCTGTACAGCGCACAGAAGCTGGGAACTCGGCCAACCATATATTGATATCTCACAAAACAACCATAAGTTGATATTTTTGTGAATCGAGTATTTCAGCAAAACTACTGCAGTAAGAA” the “relative integration efficiency (log2)” value [1] was -3.56 ± 1.1 and the “relative integration efficiency (log2)” value [2] was -3.36 ± 2.2.

In the case of “AATGTTGTTGATGCAACCATAAAGTGATATTTACTAGGATTCATGTCAACGTGCAAGCTTAGTTCGACAACCATATATTGATATCTCACAAAACAACCATAAGTTGATATTTTTGTGAATCGAGTATTTCAGCAAAACTACTGCAGTAAGAA”, the “relative integration efficiency (log2)” value [1] is reported as -5.16 ± 1 and the “relative integration efficiency (log2)” value [2] is reported as -5.46 ± 2.5.

For “AATGTTGTTGATGCAACCATAAAGTGATATTTACTTAAGCGAGTCTGTCCTTTCTGACTGTCGATCCCAACCATATATTGATATCTCACAAAACAACCATAAGTTGATATTTTTGTGAATCGAGTATTTCAGCAAAACTACTGCAGTAAGAA”, the “relative integration efficiency (log2)” value [1] was -3.4 ± 1.1 and the “relative integration efficiency (log2)” value [2] was -3.45 ± 1.6.
